This is an account of results in patent US20240117062A1 (Sanofi, published 2024).

In experiment [1] the target is T1, BCMA protein on MM1R cells (UniProt Q02223 1-184, limits assumed).
T1 construct: whole, on cells; also called BCMA proteins on MM1R cell membrane surfaces
T1 sequence (looked up): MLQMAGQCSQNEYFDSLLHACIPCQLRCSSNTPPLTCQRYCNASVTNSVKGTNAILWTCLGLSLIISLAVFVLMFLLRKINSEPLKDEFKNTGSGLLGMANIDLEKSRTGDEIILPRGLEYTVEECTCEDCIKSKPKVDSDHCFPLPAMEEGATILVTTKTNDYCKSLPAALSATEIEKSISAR
The experiment is described as follows: flow cytometry on MM1R cells. On the procedure: HEK 293 cells or MM1R cells (0.5×10⁶) were aliquoted into separate FACS tubes and were labelled as unstained, test sample or positive control. Hybridoma sup (20 μL) or purified CA10 or positive control (1 μg/mL, 5 μL) were added to the cells and incubated on ice for 30 minutes. […] The supernatant was poured off and the cells were gently vortexed to mix. 50 μL of 1:500 dilution of FITC conjugated goat anti-human (or mouse) H+L specific secondary antibody was added to the cells, and the cells were incubated on ice or at 4° C. for 30 minutes in the dark. […] The supernatant was discarded, and the cells were resuspended in 150-200 μL of FACS buffer. The cells were acquired on a BD FACS Canto and data analyzed using Flojo V10. Software.
In general terms: In flow cytometry, cells or beads pass a laser one at a time.

For a further experiment, the target named is T2, Cyno BCMA-Avi-His (cynomolgus, UniProt A0A2K5UD97 2-53).
T2 construct: SPR analyte; also called cynomolgus BCMA Avi-His protein
T2 sequence (A0A2K5UD97 entry or part of it): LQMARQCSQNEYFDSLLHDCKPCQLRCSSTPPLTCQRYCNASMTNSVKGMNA
The experiment is described as follows: SPR (Biacore T100), antibody captured on Protein A chip, antigen as analyte. The method, then: (§1) 1×HBS-EP+ was prepared in MilliQ water, filtered, and degassed. A BIACORE™ T100 was primed with 1×HBS-EP+. The immobilized chip […] BIACORE™ control software was used.
(§2) The antibodies were diluted to 20 μg/mL in HBS-EP+. Seven 1:1 serial dilutions of the antigens were prepared (80 nM final concentration), and 1×HBS-EP+ was used as a 0 nm control. 1×HBS-EP+ was used for start-up injections and HCl (12 mM) was used for regeneration. The samples were run, and the data were analyzed using the BIACORE™ T100 software.
In general terms: Surface plasmon resonance follows binding to a sensor surface in real time, without labels.

In another experiment the target is T3, Human BCMA-Avi-His (human, UniProt Q02223 2-54).
T3 construct: SPR analyte; also called human BCMA Avi-His protein
T3 sequence (looked up): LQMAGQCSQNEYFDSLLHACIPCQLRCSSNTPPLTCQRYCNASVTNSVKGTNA
The experiment is described as above. On the procedure:
as §1, §2

For the next experiment, the target named is T4, Cyno BCMA DTA-His (cynomolgus).
T4 construct: SPR analyte, Mw 28,203 Da; also called Cyno DTA His; cynomolgus BCMA DTA-His protein
T4 sequence (P00588 32-225, tags or fused parts left off): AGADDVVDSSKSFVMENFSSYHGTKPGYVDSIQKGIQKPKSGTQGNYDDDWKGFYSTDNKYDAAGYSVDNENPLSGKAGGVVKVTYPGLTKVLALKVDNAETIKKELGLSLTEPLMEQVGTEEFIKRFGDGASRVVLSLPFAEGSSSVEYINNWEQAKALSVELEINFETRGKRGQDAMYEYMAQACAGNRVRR
Described as above. On the procedure: as §1, §2

Experiment [2] addresses T5, cynomolgus BCMA protein (ELISA antigen) (cynomolgus, UniProt A0A2K5UD97 1-53).
T5 construct: also called Cyno BCMA; BCMA antigen
The experiment is described as follows: ELISA on coated BCMA antigen. (In general: An ELISA detects its analyte on a solid surface through an enzyme-linked reagent.)
Experimental: A solution of BCMA antigen (2 μg/mL or 1 mg/mL biotinylated BCMA antigen when Streptavidin coated plate is used) was prepared in phosphate buffered saline (PBS). The antigen solution was added to 96-well plates (50 μL per well) and was incubated at 4° C. overnight. The plates were blocked with 250 μL per well of PBSA (PBS containing 1% BSA) for 2 hr at 37° C., then washed with 200 μL per well of phosphate buffered saline (PBS) three times. Hybridoma sup (50 μL) or 1 mg/mL of purified test or control (positive and negative) antibody (50 μL) were added per well in the 96-well plate and were incubated for 1 hour at room temperature. The plates were washed with 200 μl per well of PBS, three times, then horse radish peroxidase (HRP) conjugated secondary antibody diluted at 1:5,000 in PBSA (50 μl per well) was added and incubated for 1 hour at room temperature. Then, the plates were washed with 200 μl per well of PBS, three times. The tetramethylbenzidine dihydrochloride (TMB) substrate was prepared by mixing with both Solution A and Solution B (1:1) in a 15 mL conical tube, then 50 μL of the substrate was added to the wells. The color was allowed to develop for 1-5 minutes, then 50 μL of the stop solution was added to each well. The absorbance was read using a SpectraMax (Molecular Devices) at 450 nm.

Positions count from the first letter of the chain named.

T5 sequence (A0A2K5UD97 entry or part of it): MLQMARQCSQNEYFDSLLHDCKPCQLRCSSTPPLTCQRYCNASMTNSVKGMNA

B1: CA10_parental (antibody, V domains shown)
VH: QVQLVESGGGVVQPGRSLRLSCAASGFTFSNFGMHWVRQAPGRGLEWVAVIWSDETNRYYADSVKGRFTVSRDNVKSTVYLQMNSLISEDTAVYYCARDQQYCSSDSCFTWFDPWGQGTLVTVSS
VL: QVVVTQESALTTSPGETVTLTCRSSTGTVTPSNYANWVQEKPDHFFTGLIGDNNSRPPGVPARFSASLIGDKAALTITGAQTEDEAMYFCALWFGNQWVFGGGTKVTVL
notes: tested as a mAb purified on mAbSelect SuRe; also called CA10_V2_parental; CA10 WT
For B1, the binding result (in experiment [1]; in the experiment with Cyno BCMA-Avi-His; with Human BCMA-Avi-His) was “binds” throughout.

B2: CA10 Variant 2 (antibody, V domains shown)
VH: B1 VH
VL: QTVVTQEPSLTVSPGGTVTLTCASSTGTVTPSNYANWVQQKPGQAPRGLIGDNNSRPPGTPARFSASLLGGKAALTLSGVQPEDEAEYYCALWFGNQWVFGGGTKLTVL
B2: the binding result (in experiment [1]; in the experiment with Cyno BCMA-Avi-His; with Human BCMA-Avi-His) was “binds” in each case.

B3: CA10 Variant 5 (CA10_PE_V5) (antibody, V domains shown)
VH: B1 VH
VL: QTVVTQEPSLTVSPGGTVTLTCASSTGAVTSGYYANWVQQKPGQAPRALIGDNNIKPSWTPARFSGSLLGGKAALTLSGVQPEDEAEYYCALYYGGQWVFGGGTKLTVL
As to B3, the binding result with Cyno BCMA DTA-His was “no binding (tested: antigen up to 80 nM)”; with Cyno BCMA-Avi-His it was “no binding (tested: antigen up to 80 nM)”; in experiment [2] it was “no binding”.

B4: CA10 Variant 3 (antibody, V domains shown)
VH: B1 VH
VL: B3 VL with S31P, G32S, Y33N, A48G, S58P, Y93W
Regarding B4, the binding result (in experiment [1]; with Cyno BCMA-Avi-His; with Human BCMA-Avi-His) was “binds” in each case.

B5: CA10 Variant 1 (antibody, V domains shown)
VH: B1 VH
VL: B2 VL with A23R, G43D, Q44H, A45F, P46F, R47T, T60V, L69I, G71D
For B5, the binding result (in experiment [1]; with Cyno BCMA-Avi-His; with Human BCMA-Avi-His) was “binds” throughout.

B6: CA10 Variant 6 (antibody, V domains shown)
VH: B1 VH
VL: B2 VL with A45F
As to B6, the binding result (in experiment [1]; in the experiment with Cyno BCMA-Avi-His; with Human BCMA-Avi-His) was “binds” throughout.

B7: CA10 Variant 4 (antibody, V domains shown)
VH: B1 VH
VL: B3 VL with S31P, A48G, I55N, S58P
Consider B7, for which, in experiment [1], the binding result was “binds”.
